According to US20260234247A1 (published 2026):
Residue numbers refer to the chain shown, from its start.

B1: LK-RB1-53 (antibody, human IgG4 S228P, kappa)
heavy: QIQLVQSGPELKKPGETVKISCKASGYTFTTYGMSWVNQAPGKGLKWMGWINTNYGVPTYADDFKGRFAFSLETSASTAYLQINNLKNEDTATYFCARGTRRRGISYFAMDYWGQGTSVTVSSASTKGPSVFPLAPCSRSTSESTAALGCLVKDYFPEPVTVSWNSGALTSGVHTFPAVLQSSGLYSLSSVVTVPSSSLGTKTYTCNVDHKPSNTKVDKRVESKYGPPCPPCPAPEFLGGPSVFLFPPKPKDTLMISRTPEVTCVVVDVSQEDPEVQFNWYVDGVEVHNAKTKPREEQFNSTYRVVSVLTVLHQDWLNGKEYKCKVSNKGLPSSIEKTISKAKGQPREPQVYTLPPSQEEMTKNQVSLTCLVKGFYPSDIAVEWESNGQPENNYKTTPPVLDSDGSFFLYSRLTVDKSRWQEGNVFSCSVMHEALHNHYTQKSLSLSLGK
light: DIVMTQSQKFMSTTVGDRVSITCKASQNVGTAVAWYQQKPGQSPKLLIYSASNRYTGVPDRFTGSDSGTDFTLTINNIQSEDLADYFCQQYSSYPLTFATGTKLELKRTVAAPSVFIFPPSDEQLKSGTASVVCLLNNFYPREAKVQWKVDNALQSGNSQESVTEQDSKDSTYSLSSTLTLSKADYEKHKVYACEVTHQGLSSPVTKSFNRGEC
B2: LK-RB1-2 (antibody, human IgG4 S228P, kappa, V domains shown)
VH: QIQLVQSGPELKKPGETVKISCKASGYTFTTYGVSWVKQAPGKGLKWMGWINTYSGVSTYSDDFKGRFAFSLETSASTAYLQIINLKNEDAATYFCSRRRRTYDGYLSFDYWGQGTTLTVSS
VL: DIQMTQSPGSLSASVGETVTITCGASENIYGALNWFQRKPGKSPQLLIYGATNLADGMSSRFSGSGSGRQYSLQISSLRPDDVATYYCQNVLTTPWTFGGGTKVEIKR
B3: LK-RB1-3 (antibody, human IgG4 S228P, kappa, V domains shown)
VH: QVQLQQPGAELVKPGTSVNLSCKASGYTFTSYWIHWVKQRPGRGLEWIGRINPYSSGTRYNEKFKNKATLTVDKPSSTAYMQLTSLTSEDSAVYYCARFDGAPDYFDFWGQGTTLTVSS
VL: DIVMTQSQKFMPTSVGDRVNVTCKASQNVGINVAWYQQKLGQSPKALIYSASYRYSGVPDRFTGSGSGTDFTLTINSVQSEDLADYFCQQYNNYPFTFGSGTKLEIKR
B4: LK-RB1-4 (antibody, human IgG4 S228P, kappa, V domains shown)
VH: QVQLQQPGAELVKPGASVKLPCKTSGYTFTSYWMHWVKQRPGRGLEWIGRIDPHYSGTKYNEKFKNKATMTVDTPSSTAYMQLSSLTSEDSAVYYCARFDGDPYYFDYWGPGTTLTVSS
VL: DIVMTQSQKFMSTSVGDRVSVTCKASQNVGTNVAWYKQKAGQSPKAVIYSASYRYSGVPDRFTGSGSGTDFTLSISNVQSEDLAEYFCQQYNNNPFTFGSGTKLEIKR
B5: LK-RB1-6 (antibody, human IgG4 S228P, kappa, V domains shown)
VH: QIQLVQSGPELKKPGETVKISCKASGYTFTTYGMSWVKQAPGKDLKWMGWINTFSGVPACADDFQGRFDFSAEPSDSTAHLQINNLKNEDTATYFCARRSYYGSRGWYFDVWGTGTTVTVSS
VL: DIVMTQSHKFMSTSVGDRVSITCTASEDVNTAVAWYQQKPGQSPKLLIYWASTRHTGVPDRFTGSGSGTDYTLTISSVQTEDLALYYCQQHYNTPYTFGGGTKLEIKR
B6: LK-RB1-7 (antibody, human IgG4 S228P, kappa, V domains shown)
VH: B5 VH
VL: DVQMIQSPSSLSASLGDIVTMTCQASQDTTINLNWFQQKPGKVPKLLIYGASNLEDGVPSRFSGSSFGTDFTLTISSLEDEDMATYFCLQHTYLPRTFGGGTKLEIRR
B7: LK-RB1-8 (antibody, human IgG4 S228P, kappa, V domains shown)
VH: QVQLQQSGAELVRPGTSVKVSCKASGYAFSNYLIEWVKQRPGQGLEWIGVINPGSDGSTYNEKFKGKATLTADKSSNTAYMQLSSLTSEDSAVYFCARGDYGRSYGMDYWGQGTSVTVSS
VL: DIVMTQSQKFMSTTVGDRVSITCKASQNVGTAVVWYQQKPGQSPKLLIYSASNRYTGVPDRFTGSGSGTDFTLTISNMQSEDLADYFCQQYSSYMYTFGGGTKLEIKR
B8: LK-RB1-14 (antibody, human IgG4 S228P, kappa, V domains shown)
VH: QVTLKESGPGILKPSQTLSLTCSFSGFSLSTSGMGVGWIRQPSGKGLEWLAHIWWDDDKYYNPSLKSQLTISKDTSRNQVFLKITSVDTADTATYYCARTELGRGDSWGQGTSVTVSS
VL: DILLTQSPAILSVSPGERVSFSCRASQSIGTSIHWYQQRTNGSPRLLIKYASESISGIPSRFSGSGSGTDFTLSINSVESEDIADYYCQQSYSWPYTFGGGTKLEIKR
B9: LK-RB1-15 (antibody, human IgG4 S228P, kappa, V domains shown)
VH: B8 VH with L12V, T31I, M34T, V36I, L69V, R77T, N78K, K83N, A98T, S107F
VL: B8 VL with E17D, S32N, Q38R, A51G, S67T, S74T
B10: LK-RB1-17 (antibody, human IgG4 S228P, kappa, V domains shown)
VH: QVQLQQPGAELVKPGASVKLSCEASGYTFTNYWIHWVKQRPGRGLEWIGRIAPNSGGTKYNEKFKTRATLTVDKASTTAYMQLSSLTSEDSAVYYCARLDGSPYYFDYWGQGTTLTVSS
VL: DIVMTQSQKFMSTSIGDRVSVTCKASQNVDTNVAWYQQKPGQSPKALIYSASYRYSGIPDRFTGSGSGTDFTLTISNVQSEDLAEYFCQQYNSYPYTFGGGTKLEIKR
B11: LK-RB1-18 (antibody, human IgG4 S228P, kappa, V domains shown)
VH: QVQLKESGPGLVAPSQSLSITCTVSGFSLTNSGVTWIRQPPGKGLEWLGVIWGDGSTNYHSALISRLSISKDNSKSQVFLKLNSLQTDDTATYYCAKPHWDYYNMDYWGQGTSVTVSS
VL: DIQMTQTPSSLSASLGDRVTISCRASQDISNYLNWYQQKPDGTVKLLIYFTSRLHSGVPSRFSGSGSGTDYSLTISNLEQEDFATYFCQQGITLPLTFGAGTKLELKR
B12: LK-RB1-19 (antibody, human IgG4 S228P, kappa, V domains shown)
VH: QVQLKESGPGLVAPSQNLSITCTVSGFSLTSYGVSWVRQPPGKGLEWLGIIWGDGNTDYHSALISRLSIRKDNSKSQVFLKLNSLKSDDTATYYCAKPHWEYYTMDYWGQGTSVTVSS
VL: B11 VL with P8T, Y32F, F50S, S76A, F83V, I92N
B13: LK-RB1-20 (antibody, human IgG4 S228P, kappa)
heavy: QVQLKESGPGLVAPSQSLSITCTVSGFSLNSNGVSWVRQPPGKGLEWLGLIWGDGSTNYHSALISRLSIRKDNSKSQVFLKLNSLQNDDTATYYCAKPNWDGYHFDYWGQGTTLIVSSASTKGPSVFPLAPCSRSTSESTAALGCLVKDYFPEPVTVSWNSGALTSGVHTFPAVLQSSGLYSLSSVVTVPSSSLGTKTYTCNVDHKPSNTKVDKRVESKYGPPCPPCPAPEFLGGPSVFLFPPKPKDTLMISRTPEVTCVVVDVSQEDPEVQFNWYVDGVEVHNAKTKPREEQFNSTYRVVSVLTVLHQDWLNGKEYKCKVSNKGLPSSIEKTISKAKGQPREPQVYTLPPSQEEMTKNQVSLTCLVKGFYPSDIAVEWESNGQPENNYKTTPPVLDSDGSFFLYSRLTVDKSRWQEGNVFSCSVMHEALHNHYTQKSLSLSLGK
light: DIQMNQSPSSLSASLGDTITITCHASQNIDFWLSWYQQKPGNIPKLLIYKASNLHTGVPSRFSGSGSGTGFTLTISSLQPEDIATYYCQQGQSYPLTFGAGTKLELKRTVAAPSVFIFPPSDEQLKSGTASVVCLLNNFYPREAKVQWKVDNALQSGNSQESVTEQDSKDSTYSLSSTLTLSKADYEKHKVYACEVTHQGLSSPVTKSFNRGEC
B14: LK-RB1-21 (antibody, human IgG4 S228P, kappa, V domains shown)
VH: QVQLQQPGAELVKPGASVKMSCKASGYIFTDYWTTWVKQRPGQGLEWIGDIYPVSGSTNYNEKFKNKATLTVDTSSSTAYMQLSSLTSEDSAVYYCARALGRRYYFDYWGQGTTLTVSS
VL: DIVMTQSHKFMSTSIGDRVSITCKASQDVSTAVAWCQQKPGQSPKSLIYSASYRYTGIPDRFTGSGSGTDFTFTISSVQAEDLAVYYCQQHYTNPVTFGTGTKLELKR
B15: LK-RB1-22 (antibody, human IgG4 S228P, kappa, V domains shown)
VH: B12 VH with N17S, D58N, I64T, R70S, K86R, S87T, E101D, Y102H, T104S
VL: B11 VL with P8T, Y32F, F50Y, V58A, E79D, F83I, I92N
B16: LK-RB1-23 (antibody, human IgG4 S228P, kappa, V domains shown)
VH: QVQLQQTGAELVRPGSSVKLSCKASGYTFTNYWMDWVKQRPGQGLEWIGNIHPFGNETHYNQKFKDKATLTVDKSSSTAYMQLSSLTSEDSAVYYCARGLLLYFDVWGTGTTVTVSS
VL: DIQMTQSPASQSVSVGETVTITCRASENIYSNLAWYQQKQGKSPQLLVYGATNLADGVSLRFSGSGSGTQYSLKINSLQSEDFGSYYCQHFWGIPWTFGGGTKLEIKR
B17: LK-RB1-24 (antibody, human IgG4 S228P, kappa, V domains shown)
VH: QVQLQQPGAELVNPGTSVNLSCKASGYTFTGYWMHWVKQRPGQGLEWIGMIHPNNGGTIYNERFNGKATLTVDRSSTTAYIQLSSLTSEDSAVYYCAYWDLDYWGQGTTLTVSS
VL: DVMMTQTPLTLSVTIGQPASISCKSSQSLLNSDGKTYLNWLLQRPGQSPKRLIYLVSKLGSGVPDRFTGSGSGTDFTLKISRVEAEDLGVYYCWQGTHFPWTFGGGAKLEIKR
B18: LK-RB1-25 (antibody, human IgG4 S228P, kappa, V domains shown)
VH: QIQLVQSGPELKKPGETVKISCKASGYTFTSYGMNWMKQAPGEGLKWMGWINTYSGVPTYADDFKGRFAFSLETSATTVYLQINNLKNEDKATYFCARRGRDSVVGHFDVWGTGTTVTVSS
VL: B5 VL with T24K, E27Q, Y71F, T80A, N93T, T94I, Y96F, G100S
B19: LK-RB1-26 (antibody, human IgG4 S228P, kappa, V domains shown)
VH: B11 VH with N31S, S32Y, T35S, I37V, V50I, H99N, N104A
VL: B11 VL with P8T, Y32F, V44F, Y49S, F50Y, R53T, F83V, I92N, E105A
B20: LK-RB1-27 (antibody, human IgG4 S228P, kappa, V domains shown)
VH: QVQLQQSGPELVKPGASVRMSCKASGYTFTSHYIHWMKQRPGQGLEWIGWIYPGDGHTKYHEKFKDRATLTADTSSITAYMRLSSLTSEDSAIYYCVYYSDSWFPYWGQGTLVTVSA
VL: B16 VL with Q11L, Q45H, G50A, S59P, L60S, S85N, I94S
B21: LK-RB1-28 (antibody, human IgG4 S228P, kappa, V domains shown)
VH: B20 VH with A16T, R19K, E46D, D66G, R67K, R82Q, S85L, I93V
VL: B16 VL with Q11L, G50A, S59P, L60S, S85N, Y87F, I94S
B22: LK-RB1-29 (antibody, human IgG4 S228P, kappa, V domains shown)
VH: QVQLKESGPGLVAPSQNLAITCTVSGFSLTNSGVSWVRQSPGKGLEWLGIIWGDGNTNYHSALISRLSISKDNSKSQVFLKLNSLQTDDTGTYYCAKPNWDYYALDYWGQGTSVTVSS
VL: DIQMTQTASSLFASLGDRVTISCRASQDISNYLNWYQQKPDGSIKLLISYTSRLHSGVPSRFSGSGSGTDYSLSISNLEQEDIATYFCQQGISLPCTFGGGTKLEVNR
B23: LK-RB1-30 (antibody, human IgG4 S228P, kappa, V domains shown)
VH: B11 VH with N31S, S32Y, T35S, S56N, H99S, N104A
VL: VIQMTQTTSSLSASLGDRVTISCRASQDISNYVNWYQQRPDGTVKLLISYTSRLHSGVPSRFSGSGSGTDYSLTITNLEQEDIATYFCQQGITLPCTFGGGTKLEINR

What follows are binders tested against T1, human LILRB1 on CHOK1 cells (human, UniProt Q8NHL6 24-650) (assay: cell-based RBA (FACS): blocking of HLA-G binding to CHOK1-hLILRB1 cells).
T1 construct: whole, on cells; also called CHOK1-hLILRB1; CHOK1-LILRB1
T1 sequence (Q8NHL6 24-650): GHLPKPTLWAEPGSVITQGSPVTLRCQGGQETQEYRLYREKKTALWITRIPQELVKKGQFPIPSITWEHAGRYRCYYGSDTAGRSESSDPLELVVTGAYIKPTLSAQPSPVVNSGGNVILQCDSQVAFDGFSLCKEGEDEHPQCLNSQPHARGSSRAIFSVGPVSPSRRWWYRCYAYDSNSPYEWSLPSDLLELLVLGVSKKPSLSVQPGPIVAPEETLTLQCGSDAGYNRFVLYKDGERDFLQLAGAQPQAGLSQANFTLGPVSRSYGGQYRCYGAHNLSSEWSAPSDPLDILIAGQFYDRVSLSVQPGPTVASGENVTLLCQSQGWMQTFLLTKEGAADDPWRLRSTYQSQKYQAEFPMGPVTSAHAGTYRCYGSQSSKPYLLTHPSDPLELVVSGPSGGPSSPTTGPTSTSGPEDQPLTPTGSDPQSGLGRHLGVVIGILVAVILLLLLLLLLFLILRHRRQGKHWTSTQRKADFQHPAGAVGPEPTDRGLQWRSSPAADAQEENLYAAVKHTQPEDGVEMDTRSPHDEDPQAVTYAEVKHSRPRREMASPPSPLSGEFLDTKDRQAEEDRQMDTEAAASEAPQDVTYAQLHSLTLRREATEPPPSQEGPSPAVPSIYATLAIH

Row | Binder | EC50 [nM] | Top Inhibition (%)
1 | B1 | 2.01 | 75.7

These binders were tested against T2, human LILRB2 on CHOK1 cells (human, UniProt Q8N423 22-597) (assay: FACS binding, CHOK1-hLILRB2 cells).
T2 construct: whole, on cells; also called CHOK1-hLILRB2; CHOK1-LILRB2
T2 sequence (Q8N423 22-597): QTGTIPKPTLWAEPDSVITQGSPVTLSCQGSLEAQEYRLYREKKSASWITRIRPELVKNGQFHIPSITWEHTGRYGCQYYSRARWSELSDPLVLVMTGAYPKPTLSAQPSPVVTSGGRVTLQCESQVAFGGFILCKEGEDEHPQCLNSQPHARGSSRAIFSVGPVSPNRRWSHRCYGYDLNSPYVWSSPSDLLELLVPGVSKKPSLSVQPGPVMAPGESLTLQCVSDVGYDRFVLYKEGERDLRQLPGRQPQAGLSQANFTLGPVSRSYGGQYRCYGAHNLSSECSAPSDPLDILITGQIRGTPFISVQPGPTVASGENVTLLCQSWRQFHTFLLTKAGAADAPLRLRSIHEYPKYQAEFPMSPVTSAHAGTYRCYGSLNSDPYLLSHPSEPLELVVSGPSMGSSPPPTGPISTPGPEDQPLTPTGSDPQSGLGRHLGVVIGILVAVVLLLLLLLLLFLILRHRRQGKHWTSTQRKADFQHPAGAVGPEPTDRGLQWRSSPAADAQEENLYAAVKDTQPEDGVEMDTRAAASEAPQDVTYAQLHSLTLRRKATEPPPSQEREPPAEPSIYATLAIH

Row | Binder | binding result
2 | B1 | no binding

These binders were tested against T3, human LILRB1 (human, UniProt Q8NHL6 24-458, limits assumed) (assay: Octet off-rate ranking;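 also: antibody dissociation rate constants against cynomolgus LILRB2 plus human LILRB1, LILRB2, LILRA1 and LILRA2, measured on an Octet instrument to rank binding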).
T3 construct: also called hLILRB1
T3 sequence (Q8NHL6 24-458 limits assumed): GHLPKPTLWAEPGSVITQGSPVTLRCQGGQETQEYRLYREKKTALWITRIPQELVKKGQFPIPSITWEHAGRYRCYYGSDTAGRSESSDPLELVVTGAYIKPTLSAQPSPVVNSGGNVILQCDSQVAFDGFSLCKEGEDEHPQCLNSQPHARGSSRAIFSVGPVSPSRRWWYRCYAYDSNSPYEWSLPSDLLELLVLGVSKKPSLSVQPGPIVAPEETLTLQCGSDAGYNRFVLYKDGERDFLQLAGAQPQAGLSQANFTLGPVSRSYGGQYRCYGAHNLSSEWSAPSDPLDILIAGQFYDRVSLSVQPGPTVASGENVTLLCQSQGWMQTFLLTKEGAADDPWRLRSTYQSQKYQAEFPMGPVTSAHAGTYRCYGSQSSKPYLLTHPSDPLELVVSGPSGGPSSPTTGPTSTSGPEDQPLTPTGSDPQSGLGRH
Description: Binding affinity of anti-LILRB1 and anti-LILRB2 antibodies against human LILRB1, LILRB2, LILRA1, LILRA2 and cynomolgus LILRB2 was ranked by measuring dissociation rate constant (Kdis) using the Octet system.

Row | Binder | koff [s⁻¹]
3 | B2 | 0.000118
4 | B3 | 5.24e-05
5 | B4 | 2.79e-05
6 | B5 | 0.00059
7 | B6 | 0.00059
8 | B7 | 0.000218
9 | B8 | 0.00131
10 | B9 | 0.000103
11 | B10 | 0.000312
12 | B11 | 8.15e-05
13 | B12 | 4.78e-05
14 | B13 | 0.000141
15 | B14 | 4.02e-05
16 | B15 | 0.000416
17 | B16 | 0.000477
18 | B17 | 0.000987
19 | B18 | 9.03e-05
20 | B19 | 0.000155
21 | B20 | 0.000112
22 | B21 | 6.28e-05
23 | B22 | 8.11e-05
24 | B23 | 6.05e-05

What follows are binders tested against T1, human LILRB1 on CHOK1 cells (assay: FACS binding, CHOK1-hLILRB1 cells).

Row | Binder | EC50 [nM]
25 | B1 | 0.71
